Experiments:
[1] = molecular target: T1, VHL (von Hippel-Lindau tumor suppressor protein), full-length (Homo sapiens (Human), UniProt P40337 1-213, 35S-methionine labeled in the in vitro assays); test: co-immunoprecipitation with anti-FLAG, in vitro translated proteins
T1 construct: also called 35S-labeled VHL; 35S-labeled full-length VHL

[2] = molecular target: T1, VHL (von Hippel-Lindau tumor suppressor …); test: co-immunoprecipitation with anti-GAL4, in vitro translated proteins
[3] = molecular target: 35S-labeled, in vitro translated full length HIF-1 alpha (human, UniProt Q16665 1-826, 35S-methionine labeled); test: as above

B1: FLAG-tagged mutant N-TAD of HIF-1 alpha (PYI triplet substituted with three aspartic acid residues) (other, not shown: small tags and cut ends)
chain: KLELVEKLFAEDTEAKNPFSTQDTDLDLEMLADDDPMDDDFQLRSFDQLSPLES
notes: also called mt N-TAD; PYI mutant N-TAD
binding result [1]: no binding

B2: GAL4/HIF-1 alpha 778-826 (other)
chain: MKLLSSIEQACDICRLKKLKCSKEKPKCAKCLKNNWECRYSPKTKRSPLTRAHLTEVESRLERLEQLFLLIFPREDLDMILKMDSLQDIKALLTGLFVQDNVNKDAVTDRLASVETDMPLTLRQHRISATSSSEESSNKGQRQLTVSLACRLLGQSMDESGLPQLTSYDCEVNAPIQGSRNLLQGEELLRALDQVN
binding result [2]: no binding

B3: GAL4/VHL 114-154 fragment (other)
chain: MKLLSSIEQACDICRLKKLKCSKEKPKCAKCLKNNWECRYSPKTKRSPLTRAHLTEVESRLERLEQLFLLIFPREDLDMILKMDSLQDIKALLTGLFVQDNVNKDAVTDRLASVETDMPLTLRQHRISATSSSEESSNKGQRQLTVSGHLWLFRDAGTHDGLLVNQTELFVPSLNVDGQPIFANITLP
binding result [3]: no binding

From US20020048794A1 (published 2002)
